# Source: paper PMC3877047 (PLoS ONE, 2013)
# T1: HMunc18c (His6-tagged full-length mouse Munc18c from a codon-optimised synthetic gene in pQE30) (mouse, UniProt Q60770 1-592)
# T1 construct: Monomer by SEC-MALS; also called pQE30-His6-Munc18c; bacterially expressed Munc18c; source: E. coli BL21, co-expressed with GroEL/GroES, purified (IMAC PrepEase, SEC, MonoS IEC); not shown: His6, N-terminal, kept
# T1 sequence (looked up): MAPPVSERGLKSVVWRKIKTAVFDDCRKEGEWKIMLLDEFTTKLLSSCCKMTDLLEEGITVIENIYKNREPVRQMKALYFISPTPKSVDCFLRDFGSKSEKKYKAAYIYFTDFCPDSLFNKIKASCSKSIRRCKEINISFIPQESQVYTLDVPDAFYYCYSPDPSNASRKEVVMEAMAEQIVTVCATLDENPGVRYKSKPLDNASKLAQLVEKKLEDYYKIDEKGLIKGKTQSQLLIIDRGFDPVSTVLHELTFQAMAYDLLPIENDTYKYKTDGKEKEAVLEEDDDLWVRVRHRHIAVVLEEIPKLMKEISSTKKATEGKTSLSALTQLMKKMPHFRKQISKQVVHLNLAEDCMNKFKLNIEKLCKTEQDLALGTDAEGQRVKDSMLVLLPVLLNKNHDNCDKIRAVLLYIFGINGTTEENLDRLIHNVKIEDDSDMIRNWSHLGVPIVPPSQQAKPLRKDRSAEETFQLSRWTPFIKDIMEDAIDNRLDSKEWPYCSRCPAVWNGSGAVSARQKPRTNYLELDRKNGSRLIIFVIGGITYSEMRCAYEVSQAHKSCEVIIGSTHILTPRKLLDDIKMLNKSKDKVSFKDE
# B1: Sx4(1-275)-His (C-terminally His6-tagged Syntaxin4 C141S, residues 1-275) (domain or fragment, UniProt P70452 1-275, looked up)
# chain: MRDRTHELRQGDNISDDEDEVRVALVVHSGAARLGSPDDEFFQKVQTIRQTMAKLESKVRELEKQQVTILATPLPEESMKQGLQNLREEIKQLGREVRAQLKAIEPQKEEADENYNSVNTRMKKTQHGVLSQQFVELINKSNSMQSEYREKNVERIRRQLKITNAGMVSDEELEQMLDSGQSEVFVSNILKDTQVTRQALNEISARHSEIQQLERSIRELHEIFTFLATEVEMQGEMINRIEKNILSSADYVERGQEHVKIALENQKKARKKKVM
# notes: source: also in lysate for the co-purification; not shown: His6, C-terminal, kept
# What was measured:
# [1] = biological target: B1; test: pull-down + SEC; lysates of un-tagged Munc18c and Sx4(1-275)-His mixed 3:1 by volume, captured on TALON beads, eluted, Superdex 200 in 25 mM Tris-HCl pH 7.5, 300 mM NaCl, 10% glycerol; peak fractions on SDS-PAGE; details: partners not purified
# [2] = biological target: T1, HMunc18c (His6-tagged full-length mouse …); test: ITC; 298 K, iTC200; Sx4(1-275)-His 200-220 µM titrated into 20-30 µM HMunc18c in the cell; 25 mM HEPES pH 8, 200 mM NaCl, 10% glycerol, 2 mM β-ME; single site model; four replicates, mean ± SEM; details: both partners purified
binder,measurement,setting,value
"Munc18c (un-tagged) (natural protein, mouse, UniProt Q60770 1-592, looked up, made from pQE30-HMunc18c by PCR that removes the His6 codons; A few vector-encoded residues may be left at the N-terminus (surmised); also called untagged Munc18c; un-tagged Munc18c) MAPPVSERGLKSVVWRKIKTAVFDDCRKEGEWKIMLLDEFTTKLLSSCCKMTDLLEEGITVIENIYKNREPVRQMKALYFISPTPKSVDCFLRDFGSKSEKKYKAAYIYFTDFCPDSLFNKIKASCSKSIRRCKEINISFIPQESQVYTLDVPDAFYYCYSPDPSNASRKEVVMEAMAEQIVTVCATLDENPGVRYKSKPLDNASKLAQLVEKKLEDYYKIDEKGLIKGKTQSQLLIIDRGFDPVSTVLHELTFQAMAYDLLPIENDTYKYKTDGKEKEAVLEEDDDLWVRVRHRHIAVVLEEIPKLMKEISSTKKATEGKTSLSALTQLMKKMPHFRKQISKQVVHLNLAEDCMNKFKLNIEKLCKTEQDLALGTDAEGQRVKDSMLVLLPVLLNKNHDNCDKIRAVLLYIFGINGTTEENLDRLIHNVKIEDDSDMIRNWSHLGVPIVPPSQQAKPLRKDRSAEETFQLSRWTPFIKDIMEDAIDNRLDSKEWPYCSRCPAVWNGSGAVSARQKPRTNYLELDRKNGSRLIIFVIGGITYSEMRCAYEVSQAHKSCEVIIGSTHILTPRKLLDDIKMLNKSKDKVSFKDE",stoichiometry N,[1],1
B1,Kd,[2],104 nM
same,dH,[2],-11 kcal/mol
same,stoichiometry N,[2],0.97
